Measurements as given in PMC4403245.

Target: GST-tagged KAHRP fragment K1D (Plasmodium falciparum) (UniProt P06719)
Assay: SPR

Sequence of UniProt P06719 (P06719 35-657): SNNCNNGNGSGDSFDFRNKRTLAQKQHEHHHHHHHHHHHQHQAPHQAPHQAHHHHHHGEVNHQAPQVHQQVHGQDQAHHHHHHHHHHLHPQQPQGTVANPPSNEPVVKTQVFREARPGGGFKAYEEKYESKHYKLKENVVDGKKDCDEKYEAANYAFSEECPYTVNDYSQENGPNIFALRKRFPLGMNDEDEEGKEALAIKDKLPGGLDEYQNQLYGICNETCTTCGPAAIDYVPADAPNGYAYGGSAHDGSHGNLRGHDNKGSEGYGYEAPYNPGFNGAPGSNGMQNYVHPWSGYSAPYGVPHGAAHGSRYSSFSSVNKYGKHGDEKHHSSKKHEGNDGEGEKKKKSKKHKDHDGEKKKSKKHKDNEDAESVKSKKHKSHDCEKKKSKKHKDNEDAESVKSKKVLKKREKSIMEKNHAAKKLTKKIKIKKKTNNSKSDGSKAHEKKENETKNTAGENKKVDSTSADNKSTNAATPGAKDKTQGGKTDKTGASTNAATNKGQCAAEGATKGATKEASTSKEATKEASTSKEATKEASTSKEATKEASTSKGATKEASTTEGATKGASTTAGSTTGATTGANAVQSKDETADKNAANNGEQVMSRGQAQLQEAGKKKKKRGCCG

Substance	Kd [nM]	koff [s⁻¹]	kon [M⁻¹ s⁻¹]
MBP-tagged ankyrin R N-terminal 89 kDa membrane binding domain (from UniProt P16157 1-827) (domain or fragment)	38	0.00161	42800
MBP-tagged D3 subdomain of the ankyrin R membrane-binding domain (from UniProt P16157 404-601) (domain or fragment)	46	0.00137	29900
